Test results taken from US20240383984A1 (Genentech, published 2024).
Numbering of substitutions follows the chain as printed. In names and notes the source's numbering stands.

B1: hu1G7.v1 heavy chain W52Y with light chain of hu1G7.v1.7 (antibody, V domains shown)
VH: EVQLVESGPGLVKPSETLSLTCTVSGFSLTRFGVHWVRQPPGKGLEWLGVIYRGGSTDYNAAFMSRLTISKDNSKNQVSLKLSSVTAADTAVYYCSNHYYGSSDYALDNWGQGTLVTVSS
VL: DIQMTQSPSSLSASVGDRVTITCKASQDVRNLVVWFQQKPGKAPKLLIYSGYYRYTGVPSRFSGSGSGTDFTLTISSLQPEDFATYYCQQHYQPPYTFGQGTKVEIK
notes: human IgG
B2: hu1G7.v1 heavy chain W52Y with light chain of hu1G7.v1.5 (antibody, V domains shown)
VH: B1 VH
VL: B1 VL with R30S, L32I, A43S, H91Q, Y92F
notes: human IgG
B3: hu1G7.v1 heavy chain W52Y with light chain of hu1G7.v1.3 (antibody, V domains shown)
VH: B1 VH
VL: B1 VL with L32I, Y52S, T56S, H91Q, Q93S
notes: human IgG
B4: hu1G7.v1 heavy chain W52L with light chain of hu1G7.v1.7 (antibody, V domains shown)
VH: B1 VH with Y52L
VL: B1 VL
notes: human IgG
B5: hu1G7.v1 heavy chain W52Y with light chain of hu1G7.v1 (antibody, V domains shown)
VH: B1 VH
VL: B1 VL with R30S, L32I, A43S, G51A, Y52S, Q93S, P94S
notes: human IgG
B6: hu1G7.v1 heavy chain W52Y with light chain of hu1G7.v1.6 (antibody, V domains shown)
VH: B1 VH
VL: B1 VL with R30S, L32I, T56S, H91Q
notes: human IgG
B7: hu1G7.v1 heavy chain W52Y with light chain of hu1G7.v1.4 (antibody, V domains shown)
VH: B1 VH
VL: B1 VL with Y52S, T56S, Q93S
notes: human IgG
B8: hu1G7.v87 (antibody, V domains shown)
VH: B1 VH with Y52W, M64V
VL: B1 VL with R30S, L32I, A43S, G51A, Y52S, Q93S, P94S
notes: Human IgG
B9: hu1G7.v1.4 (hIgG1) (antibody, V domains shown)
VH: B1 VH with Y52W
VL: B1 VL with Y52S, T56S, Q93S
notes: hIgG1
B10: 1G7.v1C (antibody, human IgG1, V domains shown)
VH: B1 VH with S28P, Y52W
VL: B1 VL with R30S, L32I, A43S, G51A, Y52S, Q93S, P94S
notes: human IgG1 with the light chain of hu1G7.v1; also called C (hu1G7.v1 heavy chain S28P)
B11: 1G7.v1K (antibody, human IgG1, V domains shown)
VH: B1 VH with Y52W, S84D
VL: B1 VL with R30S, L32I, A43S, G51A, Y52S, Q93S, P94S
notes: human IgG1 with the light chain of hu1G7.v1; also called K (hu1G7.v1 heavy chain S82bD)
B12: 1G7.v1D (antibody, human IgG1, V domains shown)
VH: B1 VH with L29T, Y52W
VL: B1 VL with R30S, L32I, A43S, G51A, Y52S, Q93S, P94S
notes: human IgG1 with the light chain of hu1G7.v1; also called D (hu1G7.v1 heavy chain L29T)
B13: 1G7.v1I (antibody, human IgG1, V domains shown)
VH: B1 VH with Y52W, S65P
VL: B1 VL with R30S, L32I, A43S, G51A, Y52S, Q93S, P94S
notes: human IgG1 with the light chain of hu1G7.v1; also called I (hu1G7.v1 heavy chain S65P)
B14: hu1G7.v93 (antibody, human IgG1, V domains shown)
VH: B1 VH with L29T, Y52W, M64V, S103P
VL: B1 VL with R30S, Y52S, T56S, Q93S
notes: human IgG1
B15: hu1G7.v86 (antibody, human IgG1, V domains shown)
VH: B1 VH with Y52W, M64V
VL: B1 VL with R30S, A43S, Y52S, T56S, Q93S
notes: human IgG1
B16: 1G7.v1L (antibody, human IgG1, V domains shown)
VH: B1 VH with Y52W, S103P
VL: B1 VL with R30S, L32I, A43S, G51A, Y52S, Q93S, P94S
notes: human IgG1 with the light chain of hu1G7.v1; also called L (hu1G7.v1 heavy chain S100P)
B17: 1G7.v1G (antibody, human IgG1, V domains shown)
VH: B1 VH with Y52W, M64G
VL: B1 VL with R30S, L32I, A43S, G51A, Y52S, Q93S, P94S
notes: human IgG1 with the light chain of hu1G7.v1; also called G (hu1G7.v1 heavy chain M64G)
B18: 1G7.v1J (antibody, human IgG1, V domains shown)
VH: B1 VH with Y52W, K81M
VL: B1 VL with R30S, L32I, A43S, G51A, Y52S, Q93S, P94S
notes: human IgG1 with the light chain of hu1G7.v1; also called J (hu1G7.v1 heavy chain K81M)
B19: 1G7.v1H (antibody, human IgG1, V domains shown)
VH: B1 VH with Y52W, S65D
VL: B1 VL with R30S, L32I, A43S, G51A, Y52S, Q93S, P94S
notes: human IgG1 with the light chain of hu1G7.v1; also called H (hu1G7.v1 heavy chain S65D)
B20: hu1G7.v92 (antibody, human IgG1, V domains shown)
VH: B1 VH with Y52W, M64V, S103P
VL: B1 VL with R30S, A43S, Y52S, T56S, Q93S
notes: human IgG1
B21: 1G7.v1F (antibody, human IgG1, V domains shown)
VH: B1 VH with Y52W, A61P
VL: B1 VL with R30S, L32I, A43S, G51A, Y52S, Q93S, P94S
notes: human IgG1 with the light chain of hu1G7.v1; also called F (hu1G7.v1 heavy chain A61P)
B22: hu1G7.v91 (antibody, human IgG1, V domains shown)
VH: B1 VH with L29T, Y52W, M64V
VL: B1 VL with R30S, A43S, Y52S, T56S, Q93S
B23: 1G7.v1E (antibody, human IgG1, V domains shown)
VH: B1 VH with V37Y, Y52W
VL: B1 VL with R30S, L32I, A43S, G51A, Y52S, Q93S, P94S
notes: human IgG1 with the light chain of hu1G7.v1; also called E (hu1G7.v1 heavy chain V37Y)

Target: T1, human FcRH5 protein fragment (soluble) (human, UniProt Q96RD9 16-851)
T1 construct: whole entry named; also called soluble human FcRH5; Human FcRH5 (BIACORE analyte)
T1 sequence: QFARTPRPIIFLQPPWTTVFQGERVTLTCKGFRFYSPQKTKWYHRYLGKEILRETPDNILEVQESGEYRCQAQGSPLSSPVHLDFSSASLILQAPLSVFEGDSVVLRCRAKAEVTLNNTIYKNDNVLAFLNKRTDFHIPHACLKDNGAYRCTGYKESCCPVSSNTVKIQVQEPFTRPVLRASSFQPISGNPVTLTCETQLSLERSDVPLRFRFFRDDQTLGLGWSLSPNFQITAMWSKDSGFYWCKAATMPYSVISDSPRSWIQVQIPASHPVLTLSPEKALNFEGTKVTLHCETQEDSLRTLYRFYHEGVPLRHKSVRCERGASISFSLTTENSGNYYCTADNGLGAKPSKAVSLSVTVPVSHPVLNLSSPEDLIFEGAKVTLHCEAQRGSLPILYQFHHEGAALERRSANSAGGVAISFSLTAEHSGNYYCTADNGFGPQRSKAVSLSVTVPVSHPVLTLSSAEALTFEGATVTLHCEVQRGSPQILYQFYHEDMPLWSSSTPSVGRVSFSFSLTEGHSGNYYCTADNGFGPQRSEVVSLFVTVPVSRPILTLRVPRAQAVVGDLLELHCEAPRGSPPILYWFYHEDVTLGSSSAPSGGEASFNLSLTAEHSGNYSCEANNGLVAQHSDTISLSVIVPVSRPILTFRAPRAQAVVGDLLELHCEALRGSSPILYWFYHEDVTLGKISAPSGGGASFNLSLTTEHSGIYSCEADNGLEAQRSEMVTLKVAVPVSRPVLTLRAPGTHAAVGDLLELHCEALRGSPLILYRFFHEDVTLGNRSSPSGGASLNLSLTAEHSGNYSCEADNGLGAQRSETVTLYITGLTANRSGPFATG
Test: SPR, hIgG capture, screening

Row | Binder | Kd
1 | B1 | 140 nM
2 | B2 | 180 nM
3 | B3 | 640 nM
4 | B4 | 130 nM
5 | B5 | 150 nM
6 | B6 | 530 nM
7 | B7 | 130 nM
8 | B8 | 27 nM

Target: T1, human FcRH5 protein fragment (soluble)
Test: SPR, hIgG capture, 1:1 model
Description: (§1) Briefly, a human IgG capture surface was generated on a Series S CM5 chip using amine coupling and the human IgG capture kit (GE Life Sciences, Piscataway, NJ). Test antibodies were then captured on flow cells 2, 3, or 4, with flow cell 1 used as a reference. An FcRH5 protein fragment was used as the analyte, with a flow rate of […]. Between injections the capture surface was regenerated by a 30-second injection of 3M magnesium chloride or 10 mM glycine, pH 1.5. Interactions were assessed at 25° C. in 10 mM HEPES pH7.4, 150 mM NaCl, and 0.05% Tween 20 (HBSP). Reference data from the reference flow cell and from injection of buffer alone were subtracted prior to kinetic analysis. Kinetic information was calculated by fitting data to a 1:1 binding model. Reference subtraction and data fitting were performed using BIAevaluation software (GE Life Sciences, Piscataway, NJ).
(§2) Kinetic characterization experiments were carried out (see Table 8). In these experiments, binding of soluble FcRH5 protein fragment to purified antibodies in human TDB antibody format was analyzed at six different non-zero concentrations (a 1:3 dilution series, one concentration injected twice as a replicate). Flow rate was set at 40 μl/min and association and dissociation monitored for 600 s.

Row | Binder | Kd | koff | kon
9 | B9 | 2.6 nM | 0.002 s⁻¹ | 700000 M⁻¹ s⁻¹

Target: T2, cynomolgus FcRH5 protein fragment (soluble) (cynomolgus monkey)
T2 construct: whole entry named; also called Cyno FcRH5 (BIACORE analyte)
T2 chain: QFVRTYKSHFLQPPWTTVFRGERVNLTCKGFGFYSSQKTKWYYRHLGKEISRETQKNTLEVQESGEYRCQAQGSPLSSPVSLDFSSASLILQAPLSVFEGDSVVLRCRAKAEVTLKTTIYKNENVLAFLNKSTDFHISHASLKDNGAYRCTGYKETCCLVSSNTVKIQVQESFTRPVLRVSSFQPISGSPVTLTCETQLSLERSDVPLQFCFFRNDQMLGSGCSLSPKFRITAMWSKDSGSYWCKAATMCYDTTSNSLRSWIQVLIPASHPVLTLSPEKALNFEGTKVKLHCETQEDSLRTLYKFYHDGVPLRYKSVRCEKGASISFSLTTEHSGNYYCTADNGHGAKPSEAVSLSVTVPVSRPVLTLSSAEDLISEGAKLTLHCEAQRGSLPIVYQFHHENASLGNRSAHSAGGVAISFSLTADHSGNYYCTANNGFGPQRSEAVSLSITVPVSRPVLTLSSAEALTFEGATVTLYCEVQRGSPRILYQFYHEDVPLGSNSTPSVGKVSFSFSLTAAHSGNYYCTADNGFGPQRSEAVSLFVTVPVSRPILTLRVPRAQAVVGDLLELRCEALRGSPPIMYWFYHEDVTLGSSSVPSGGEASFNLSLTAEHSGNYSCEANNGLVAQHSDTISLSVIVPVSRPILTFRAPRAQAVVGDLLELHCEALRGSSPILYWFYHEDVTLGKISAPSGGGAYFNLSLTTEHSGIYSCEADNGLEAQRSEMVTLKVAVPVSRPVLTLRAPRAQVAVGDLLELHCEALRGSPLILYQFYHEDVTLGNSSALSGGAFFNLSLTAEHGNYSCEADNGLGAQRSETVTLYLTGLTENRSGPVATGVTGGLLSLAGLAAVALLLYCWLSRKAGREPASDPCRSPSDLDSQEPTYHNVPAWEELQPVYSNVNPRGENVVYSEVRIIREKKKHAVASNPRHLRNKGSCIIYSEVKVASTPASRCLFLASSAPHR
Test: SPR, hIgG capture, 1:1 model
Description: as §1, §2

Row | Binder | Kd | koff | kon
10 | B9 | 7.7 nM | 0.001 s⁻¹ | 100000 M⁻¹ s⁻¹

Target: T1, human FcRH5 protein fragment (soluble)
Test: BIACORE, human IgG1, soluble human FcRH5

Row | Binder | Fold improvement over hu1G7.v1 | Kd | Fold improvement over hu1G7.v86
11 | B10 | 1.1 fold | 13.3 nM | –
12 | B11 | 1 fold | 15 nM | –
13 | B12 | 2.2 fold | 6.7 nM | –
14 | B13 | 0.9 fold | 16.2 nM | –
15 | B14 | 25.3 fold | 0.6 nM | 2.5 fold
16 | B15 | 10.3 fold | 1.4 nM | –
17 | B16 | 3 fold | 4.8 nM | –
18 | B17 | 1 fold | 14.4 nM | –
19 | B18 | 1 fold | 15.3 nM | –
20 | B19 | 1 fold | 15 nM | –
21 | B20 | 15.9 fold | 0.9 nM | 1.5 fold
22 | B21 | 1.2 fold | 11.7 nM | –
23 | B22 | – | 0.7 nM | –
24 | B23 | 1.3 fold | 11 nM | –

Target: T1, human FcRH5 protein fragment (soluble)
Test: SPR (BIACORE), IgG captured via anti-human IgG, FcRH5 protein fragment as analyte (100 and 500 nM)

Row | Binder | Kd
25 | B1 | 136 nM
26 | B2 | 177 nM
27 | B3 | 641 nM
28 | B4 | 129 nM
29 | B5 | 146 nM
30 | B6 | 529 nM
31 | B7 | 131 nM
32 | B8 | 27.4 nM
